{"source": "patent US20190336574A1", "about": "(TRUSTEES OF PRINCETON UNIVERSITY, published 2019)", "binders": {"B1": {"name": "Myc-MTDH D406R, full-length human (other)", "chain": "MAARSWQDELAQQAEEGSARLREMLSVGLGFLRTELGLDLGLEPKRYPGWVILVGTGALGLLLLFLLGYGWAAACAGSRKKRRSPPRKREEAAAVPAAAPDDLALLKNLRSEEQKKKNRKKLSEKPKPNGRTVEVAEGEAVRTPQSVTAKQPPEIDKKNEKSKKNKKKSKSDAKAVQNSSRHDGKEVDEGAWETKISHREKRQQRKRDKVLTDSGSLDSTIPGIENTITVTTEQLTTASFPVGSKKNKGDSHLNVQVSNFKSGKGDSTLQVSSGLNENLTVNGGGWNEKSVKLSSQISAGEEKWNSVSPASAGKRKAEPSAWSQDTGDANTNGKDWGRSWSDRSIFSGIGSTAEPVSQSTTSDYQWDVSRNQPYIDDEWSGLNGLSSADPNSDWNAPAEEWGNWVREERASLLKSQEPIPDDQKVSDDDKEKGEGALPTGKSKKKKKKKKKQGEDNSTAQDTEELEKEIREDLPVNTSKTRPKQEKAFSLKTISTSDPAEVLVKNSQPIKTLPPATSTEPSVILSKSDSDKSSSQVPPILQETDKSKSNTKQNSVPPSQTKSETSWESPKQIKKKKKARRET", "notes": "Full-length, Myc-tagged; also called SPM32"}, "B2": {"name": "Myc-MTDH E407R, full-length human (other)", "chain": "B1 chain with R406D, E407R", "notes": "Full-length, Myc-tagged; also called SPM33"}, "B3": {"name": "Myc-MTDH W404D, full-length human (other)", "chain": "B1 chain with W404D, R406D", "notes": "Full-length, Myc-tagged; also called SPM31"}, "B4": {"name": "Myc-MTDH D393R, full-length human (other)", "chain": "B1 chain with D393R, R406D", "notes": "Full-length, Myc-tagged; also called SPM12"}, "B5": {"name": "Myc-MTDH D389R, full-length human (other)", "chain": "B1 chain with D389R, R406D", "notes": "Full-length, Myc-tagged; also called SPM11"}, "B6": {"name": "Myc-MTDH W401A, full-length human (other)", "chain": "B1 chain with W401A, R406D", "notes": "Full-length, Myc-tagged"}, "B7": {"name": "Myc-MTDH W394A, full-length human (other)", "chain": "B1 chain with W394A, R406D", "notes": "Full-length, Myc-tagged"}, "B8": {"name": "Myc-MTDH W394D, full-length human (other)", "chain": "B1 chain with W394D, R406D", "notes": "Full-length, Myc-tagged; also called SPM13"}, "B9": {"name": "GST-MTDH (364-582) N403A (other)", "chain": "YQWDVSRNQPYIDDEWSGLNGLSSADPNSDWNAPAEEWGAWVDEERASLLKSQEPIPDDQKVSDDDKEKGEGALPTGKSKKKKKKKKKQGEDNSTAQDTEELEKEIREDLPVNTSKTRPKQEKAFSLKTISTSDPAEVLVKNSQPIKTLPPATSTEPSVILSKSDSDKSSSQVPPILQETDKSKSNTKQNSVPPSQTKSETSWESPKQIKKKKKARRET", "notes": "not shown: N-terminal GST tag with TEV site, pQlink vector"}, "B10": {"name": "GST-MTDH (364-582) W401D (other)", "chain": "B9 chain with W38D, A40N", "notes": "as for B9"}, "B11": {"name": "GST-MTDH (386-407), wild type (other)", "chain": "SSADPNSDWNAPAEEWGNWVDE", "modifications": "not fully specified (N-terminus)", "notes": "as for B9"}}, "note": "Changes are numbered by the printed parent chain. Names may count otherwise. Where no end group is shown, it is not given here.", "data": [{"molecular_target": "T1, HA-SND1, full-length human, wild type (human, UniProt Q7KZF4 1-910)", "T1 construct": "Full-length, HA-tagged; Expressed in HEK293T cells, tested in lysate; also called HA-tagged SND1; WT HA-SND1", "T1 sequence": "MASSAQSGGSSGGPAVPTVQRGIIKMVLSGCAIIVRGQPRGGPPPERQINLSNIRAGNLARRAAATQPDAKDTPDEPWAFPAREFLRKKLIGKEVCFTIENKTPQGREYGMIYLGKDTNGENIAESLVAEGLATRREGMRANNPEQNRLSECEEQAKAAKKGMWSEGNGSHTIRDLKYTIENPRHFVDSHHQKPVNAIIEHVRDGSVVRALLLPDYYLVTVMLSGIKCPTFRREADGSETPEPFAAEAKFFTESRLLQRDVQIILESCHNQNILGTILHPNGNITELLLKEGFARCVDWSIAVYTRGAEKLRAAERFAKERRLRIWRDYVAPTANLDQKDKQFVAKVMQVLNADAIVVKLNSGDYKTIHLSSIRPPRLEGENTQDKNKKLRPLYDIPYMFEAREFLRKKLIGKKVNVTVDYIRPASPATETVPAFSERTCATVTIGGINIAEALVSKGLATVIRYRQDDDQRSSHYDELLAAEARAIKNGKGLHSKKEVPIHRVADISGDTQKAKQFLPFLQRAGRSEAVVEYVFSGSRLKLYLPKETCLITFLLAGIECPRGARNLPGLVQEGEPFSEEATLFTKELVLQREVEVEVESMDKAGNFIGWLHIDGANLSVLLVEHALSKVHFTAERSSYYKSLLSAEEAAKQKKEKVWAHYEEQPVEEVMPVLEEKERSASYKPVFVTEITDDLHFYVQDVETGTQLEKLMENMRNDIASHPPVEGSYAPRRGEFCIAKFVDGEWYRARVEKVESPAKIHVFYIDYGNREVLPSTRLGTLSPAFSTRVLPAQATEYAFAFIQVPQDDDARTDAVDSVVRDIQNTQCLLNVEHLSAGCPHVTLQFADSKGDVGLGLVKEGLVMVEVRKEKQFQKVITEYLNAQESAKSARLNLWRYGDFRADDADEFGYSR", "assay": "co-IP (anti-Myc) from HEK293T lysates, western blot", "values": [{"binder": "B1", "binding result": "binds"}, {"binder": "B2", "binding result": "binds"}, {"binder": "B3", "binding result": "binds"}, {"binder": "B4", "binding result": "binds"}]}, {"molecular_target": "T1, HA-SND1, full-length human, wild type", "assay": "co-IP from HEK293T lysates (anti-HA per text, anti-Myc per legend), western blot", "procedure": "Immunoprecipitation and western blot: For in vivo immunoprecipitation (IP) experiments, cultured cells were washed in cold PBS and lysed in lysis buffer (20 mM Tris pH 7.4, 0.15 M NaCl, 1 mM EDTA, 1 mM EGTA, 1% Tx-100, 0.0025 M Na2P2O7, 1 mM β-glycerolphosphate, 1 mM Na3VO4, and 1 mM NaF) with an EDTA-free protease inhibitor mixture (Roche Applied Science) and PMSF. Cell lysates were then incubated on ice for 10 min, centrifuged, and precleared by incubating with protein A/G beads (Santa Cruz Biotechnology) for 1 h at 4° C. For IP bead preparation, 30 μl of protein A/G beads were incubated with 5 μg of antibodies for 2 h at 4° C. IPs were carried out for overnight at 4° C., and beads were centrifuged, washed and subsequently boiled for 5 min in SDS protein loading buffer to elute bound protein. IP lysates were subjected to western blotting with indicated antibodies.\nIt was further examined how the MTDH and SND1 mutations identified at this interface affected the interaction of full-length proteins in mammalian cells. Full-length HA-tagged SND1 was co-expressed with full-length Myc-tagged wild-type (WT) or mutant MTDH in HEK293T cells and cell lysates were subjected to anti-HA immunoprecipitation for SND1 pull down. Consistent with in vitro observations (FIG. 22A), WT MTDH, but not mutants W394A, W394D, or W401A, was pulled down along with HA-SND1 (FIG. 22C, in red). […] Likewise, the SND1 mutations that affected MTDH-binding in vitro also affected the binding of full-length proteins in vivo to similar levels.", "values": [{"binder": "B5", "binding result": "binds"}, {"binder": "B6", "binding result": "no binding"}, {"binder": "B7", "binding result": "no binding"}, {"binder": "B8", "binding result": "no binding"}]}, {"molecular_target": "T2, His-SND1 (16-339), SN1/2 domains, wild type (human, UniProt Q7KZF4 16-339)", "T2 construct": "also called His6-SND1 harboring the SN1/2 domains; not shown: N-terminal His tag (His6, His8 or His) with TEV site, pQlink vector", "T2 sequence": "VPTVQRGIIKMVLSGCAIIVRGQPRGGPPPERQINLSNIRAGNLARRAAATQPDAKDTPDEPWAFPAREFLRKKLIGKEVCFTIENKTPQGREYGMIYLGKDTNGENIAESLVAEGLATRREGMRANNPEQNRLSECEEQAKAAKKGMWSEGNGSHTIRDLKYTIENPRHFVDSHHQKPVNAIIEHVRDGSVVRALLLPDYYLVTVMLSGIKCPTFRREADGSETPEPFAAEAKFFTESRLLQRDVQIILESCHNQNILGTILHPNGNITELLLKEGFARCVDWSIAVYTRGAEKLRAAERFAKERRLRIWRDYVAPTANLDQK", "assay": "GST pull-down on glutathione resin, SDS-PAGE, Coomassie blue; normalised percentage of binding, mean±SEM of three experiments", "source_text": "The proteins bound to GS4B were examined on SDS-PAGE and visualized by Coomassie blue staining. […] The bound proteins were examined as in (FIG. 22A). For both (FIG. 22A) and (FIG. 22B), experiments were repeated three times; representative results are shown. The normalized percentage of binding was averaged from three experiments; mean±SEM was shown below the data. (FIG. 22C) HEK293T cells were transfected with human HA-SND1, WT Myc-MTDH or Myc-MTDH with indicated single point mutation. Lysates were immunoprecipitated with anti-Myc antibody and immunoblotted with the indicated antibodies. (FIG. 22D) HEK293T cells were transfected with human Myc-MTDH, WT HA-SND1 or mutant HA-SND1 with indicated single point mutations or deletions. Lysates were immunoprecipitated with anti-Myc and immunoblotted with the indicated antibodies.\nGST-Mediated Pull-Down Assay: ˜20 μg of GST-MTDH (different truncation forms and site mutants) was bound to 10 μl of glutathione resin via GST tag. The resin was washed with 200 μl assay buffer (25 mM Tris, PH8.0, 150 mM NaCl, 3 mM DTT) three times to remove the excess unbound protein. […] The mixture was washed with 200 μl assay buffer twice before examined by SDS-PAGE, and visualized by Coomassie blue staining. The experiments were repeated 3 times and the ratio of SND1 associated with GST-MTDH was analyzed by ImageJ.\nIdentification of MTDH and SND1 mutants deficient in binding: To gain insight into how the interface characterized above contributes to MTDH-SND1 interaction, structure-guided mutagenesis studies were performed.", "units": {"% Maximum binding": "%"}, "values": [{"binder": "B9", "% Maximum binding": 68}, {"binder": "B10", "% Maximum binding": 46}]}, {"molecular_target": "T2, His-SND1 (16-339), SN1/2 domains, wild …", "assay": "GST titration pull-down: GST-MTDH (386-407) on glutathione resin, SND1 (SN1/2) at 10, 3, 1, 0.5, 0.25, 0.12 (the sheet prints mM, paragraph 254 says µM), SDS-PAGE, Coomassie blue", "units": {"Estimated Binding Affinity": "µM"}, "values": [{"binder": "B11", "Estimated Binding Affinity": "~1.2"}, {"binder": "SSADPNSDWNAPAEDWGLWVDE (other, member of the group m64)", "note": "[E400D/N403L]", "Estimated Binding Affinity": "~0.9"}, {"binder": "SSADPNSDWNDPAEEWGNWVDE (other, member of the group m64)", "note": "[A396D]", "Estimated Binding Affinity": "~1.5"}, {"binder": "SSADPNSDWKAPAEEWGNWVDE (other, member of the group m64)", "note": "[N395K]", "Estimated Binding Affinity": "~0.8"}]}]}
